Groups on a side chain read outwards from the residue. No end group written: not given here.

The target of test [1] is T1, recombinant human NME7-AB (human, UniProt Q9Y5B8 92-376).
T1 construct: Expressed in E. coli, lacks the DM10 domain, monomer; also called NME7 monomer
T1 sequence: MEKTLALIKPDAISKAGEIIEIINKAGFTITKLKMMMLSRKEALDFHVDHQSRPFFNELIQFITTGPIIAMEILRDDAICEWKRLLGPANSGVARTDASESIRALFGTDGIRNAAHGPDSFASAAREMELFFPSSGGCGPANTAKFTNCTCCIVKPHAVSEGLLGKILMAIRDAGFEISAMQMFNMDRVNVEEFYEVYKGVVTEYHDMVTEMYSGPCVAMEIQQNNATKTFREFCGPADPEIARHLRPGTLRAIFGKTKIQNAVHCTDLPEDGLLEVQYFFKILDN
The test can be described thus: sandwich ELISA, PSMGFR-His bound to NME7 held by plate-bound PSMGFR, anti-Histag-HRP. How it is done:
(§1) The PSMGFR peptide bearing a C-terminal Cysteine (PSMGFR-Cys) was covalently coupled to BSA using Imject Maleimide activated BSA kit (Thermo Fisher). PSMGFR-Cys coupled BSA was diluted to 10 ug/mL in 0.1M carbonate/bicarbonate buffer pH 9.6 and 50 uL was added to each well of a 96 well plate. After overnight incubation at 4° C., the plate was washed twice with PBS-T and a 3% BSA solution was added to block remaining binding site on the well. After 1 h at RT the plate was washed twice with PBS-T and NME7, diluted in PBS-T+1% BSA, was added at different concentrations. After 1 h at RT the plate was washed 3× with PBS-T and anti-NM23-H7 (B-9, Santa Cruz Biotechnology), diluted in PBS-T+1% BSA, was added at 1/500 dilution. […] After 1 h at RT the plate was washed 3× with PBS-T and binding of NME7 was measured at 415 nm using ABTS solution (Pierce). […]
(§2) After 1 h at RT the plate was washed 3× with PBS-T and HisTagged PSMGFR peptide (PSMGFR-His) or biotinylated PSMGFR peptide (PSMGFR-biotin), diluted in PBS-T+1% BSA, was added at different concentration. […] After 1 h at RT the plate was washed 3× with PBS-T and binding of PSMGFR peptide to NME7 already bound to another PSMGFR peptide (which could not signal by anti-His antibody or by streptavidin) coupled BSA was measured at 415 nm using a ABTS solution (Pierce).
A general note: In an ELISA, binding on a coated surface is turned into a signal by an enzyme label.

The target in test [2] is T1, recombinant human NME7-AB. The test can be described thus: sandwich ELISA. Here is the method: as §1, §2
Test [3] concerns the target T1, recombinant human NME7-AB. Kind of test: sandwich ELISA, PSMGFR-biotin bound to NME7 held by plate-bound PSMGFR, streptavidin-HRP. Here is the method:
as §1, §2

Test [4] concerns the target T1, recombinant human NME7-AB. The test can be described thus: ELISA, PSMGFR-Cys coupled BSA on the plate, NME7 detected with B-9. How it is done: The PSMGFR peptide bearing a C-terminal Cysteine (PSMGFR-Cys) was covalently coupled to BSA using Imject Maleimide activated BSA kit (Thermo Fisher). PSMGFR-Cys coupled BSA was diluted to 10 ug/mL in 0.1M carbonate/bicarbonate buffer pH 9.6 and 50 uL was added to each well of a 96 well plate. After overnight incubation at 4° C., the plate was washed twice with PBS-T and a 3% BSA solution was added to block remaining binding site on the well. After 1 h at RT the plate was washed twice with PBS-T and NME7, diluted in PBS-T+1% BSA, was added at different concentrations. After 1 h at RT the plate was washed 3× with PBS-T and anti-NM23-H7 (B-9, Santa Cruz Biotechnology), diluted in PBS-T+1% BSA, was added at 1/500 dilution. After 1 h at RT the plate was washed 3× with PBS-T and goat anti mouse-HRP, diluted in PBS-T+1% BSA, was added at 1/3333 dilution. After 1 h at RT the plate was washed 3× with PBS-T and binding of NME7 was measured at 415 nm using ABTS solution (Pierce).

B1: His-tagged PSMGFR peptide (peptide)
peptide: GTINVHDVETQFNQYKTEAASRYNLTISDVSVSDVPFPFSAQSGA
notes: also called PSMGFR-His; not shown: histidine tag
Consider B1, for which the binding result in test [1] is listed as “binds”.

B2: MUC1* extracellular domain peptide (PSMGFR peptide) (peptide)
peptide: B1 peptide
notes: also called synthetic MUC1* peptide; surface immobilized MUC1* peptide
As to B2, the binding result in test [2] is “binds”.

Turning to GTINVHDVETQFNQYKTEAASRYNLTISDVSVSDVPFPFSAQSGA (also: biotinylated (position not given here), also called PSMGFR-biotin) [biotinylated PSMGFR peptide], in test [3], the binding result was “binds”.

B3: PSMGFR peptide bearing a C-terminal Cysteine, coupled to BSA (peptide)
peptide: GTINVHDVETQFNQYKTEAASRYNLTISDVSVSDVPFPFSAQSGAC([maleimide-BSA])
notes: also called PSMGFR-Cys; PSMGFR-Cys coupled BSA
Consider B3, for which the binding result in test [4] is “binds”.
